Measurements reported in US9688764B2, “Methods of treating breast cancer by administering anti-human prolactin receptor (PRLR) antibodies” (REGENERON PHARMACEUTICALS, INC., priority 2013, dated 2017).

B1: H1H6774P: anti-PRLR antibody, human IgG1 Fc; HCVR/LCVR SEQ ID NOs 34/42 (antibody, V domains shown)
VH: EVQLVESGGGLAQPGGSLRLSCVASGFTFSTYWMSWVRQAPGKGLDWVGNIKQDGSEQNYVDSVRGRFTISRDNAKNSLFLQMNSLRAEDTGVYYCATLLTKGDYWGQGTLVTVSS
VL: DIQMTQSPSSLSASVGDSVTITCRASQDISNYLDWFQQKPGKAPKSLIYAASILQGGVPSRFSGSGYGTDFTLTISSLQPEDFATYYCRQYKTYPFTFGPGTKVDIK
modifications: human IgG1 Fc
B2: H1H6781P: anti-PRLR antibody, human IgG1 Fc; HCVR/LCVR SEQ ID NOs 50/58 (antibody, V domains shown)
VH: EVQLVESGGDLVQPGESLRLSCTASGFTFNSYEMNWVRQAPGKGLEWVSYISSSGGTKYYVDSVKGRFTISRDNAKKSLYLQMNSLRADDTALYYCARLNGVDVFDIWGQGTMVTVSS
VL: DIQMTQSPSSLSASVGDRVTITCRASQDIFNYLAWFQQKPGKVPELLISAASTLQSGVPSRFSGSGSGTYFTLTISSLQPEDIATYYCQRYNSAPLTFGGGTKVEIK
modifications: human IgG1 Fc
B3: H1H6782P: anti-PRLR antibody, human IgG1 Fc; HCVR/LCVR SEQ ID NOs 66/74; non-blocking (antibody, V domains shown)
VH: EVQLVESGGGLVQPGRSLRLSCAASGFTFDDYAMHWVRQAPGKGLEWVSGIIWNSGHIGYGDSVKGRFTISRDNAKKSLYLQMNSLRAEDTALYYCARDSGRYQSYFDYWGQGTLVTVSS
VL: DIQMTQSPSTLSASVGDRVTITCRASHIISSWLAWYQQKPGKAPKVLIFKASSLESGVPSRFSGSGSGTEFTLTISSLQPDDFATYYCQQYNTYSRTFGQGTKVEIK
modifications: human IgG1 Fc
B4: H1H6785P: anti-PRLR antibody, human IgG1 Fc; HCVR/LCVR SEQ ID NOs 98/106 (antibody, V domains shown)
VH: EVQLVESGGGLVQPGGSLRLSCAASGFTFSSYEMNWVRQAPGKGLEWISYISSRGGTIYYADSIKGRFTIYRDNARNSLYLQMNSLRAEDTAIYYCARLSGVDIFDIWGQGTMVTVSS
VL: DIQMTQSPSSLSASVGDRVTITCRASQGISNYLAWYQQKPGKVPKLLIYFASTLQSGVPSRFSGGGSGTDFTLTISSLQPEDVATYYCQRYNSAPLTFGGGTKVEIK
modifications: human IgG1 Fc
B5: H1H6790P: anti-PRLR antibody, human IgG1 Fc; HCVR/LCVR SEQ ID NOs 114/122 (antibody, V domains shown)
VH: EVQLVESGGGLVQPGGSLRLSCAASGFTFSSYAMTWVRQAPGKGLEWVSAITGSVGNTYYADSVKGRFTISRDNSKNTLYLQMNSLGAEDTAEYYCAKGAGMTTNWYLDLWGRGTLVTVSS
VL: DIVMTQSPDSLAVSLGARATINCKSSQSVLYSSNNQNYLTWYQQKPGQPPKLLIKWASTRESGVPDRFSGSGSGTDFTLTISSLQAEDVAVYYCQQYASSPYTFGQGTKLEIK
modifications: human IgG1 Fc
B6: H1H6792P: anti-PRLR antibody, human IgG1 Fc; HCVR/LCVR SEQ ID NOs 130/138 (antibody, V domains shown)
VH: EVQLVESGGGLVQPGRSLRLSCAASGFTLDDHAVHWVRQAPGKGLEWVSGISWNSVYIDYADSVKGRFTIFRDNAKNSLYLQMNSLRAEDTAFYYCARDIEGARDYWGQGTLVTVSS
VL: DIQMTQSPSSLSASVGDRVTITCRASQGIRNDLGWYQQKPGKAPKRLIYAASSLQSGVPSRFSGSGYGTEFTLTISSLQPEDFAPYYCLQHNSYPLTFGGGTKVEIK
modifications: human IgG1 Fc
B7: H1H6793P: anti-PRLR antibody, human IgG1 Fc; HCVR/LCVR SEQ ID NOs 146/154 (antibody, V domains shown)
VH: EVQLVESGGGLVQPGGSLRLSCAASGFSFSIYAMSWFRQAPGKGLEWVSAINGRGDGTHYADSVKGRFTISRDNSKTTLYLQMSSLRAEDTAVYYCAKPVMSTNGFDIWGQGTMVTVSS
VL: DIQMTQSPSTLSASVGDRVTITCRASQSISSWLAWYQLKPGKAPKLLIYKASNLESGVPSRFSGSGSGTEFTLTISSLQPDDFATYYCQQYNIYWTFGQGTKVEIK
modifications: human IgG1 Fc
B8: H1H6795P: anti-PRLR antibody, human IgG1 Fc; HCVR/LCVR SEQ ID NOs 162/170 (antibody, V domains shown)
VH: QVQLVQSGAEVKKPGASVKVSCKASGYTFGTSGITWVRQAPGQGLEWMGWSSAYNGKTDYAQKFQDRVTMTTDTSTTTGYMEMRSLTSDDTAVYYCTTVVRRPFDFWGQGTLVTVSS
VL: DIQMTQSPSSLSASVGDRVTITCRASQDINNFLAWFQQKPGKAPKSLIYAASSLQSGVPSKFSGGGSGTDFALTISSLQPEDFATYYCQQYSSYPITFGQGTRLEIK
modifications: human IgG1 Fc

Legend:
[1] = target: mfPRLR.mmh (monomeric macaca fascicularis PRLR); experiment: Surface plasmon resonance (Biacore T200), mAb-capture format; format: binding; settings: antibody-capture format, analyte mfPRLR.mmh
Chain of mfPRLR.mmh (monomeric macaca fascicularis PRLR) (as listed by the source): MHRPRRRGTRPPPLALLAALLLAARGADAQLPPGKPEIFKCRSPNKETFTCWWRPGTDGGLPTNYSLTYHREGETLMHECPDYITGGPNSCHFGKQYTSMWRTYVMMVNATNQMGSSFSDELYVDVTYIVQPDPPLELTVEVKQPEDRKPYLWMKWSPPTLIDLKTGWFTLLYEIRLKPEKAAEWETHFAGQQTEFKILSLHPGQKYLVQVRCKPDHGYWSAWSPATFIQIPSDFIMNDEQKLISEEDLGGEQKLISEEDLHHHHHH
Experimental: (§1) Antibodies, expressed as human IgG1 Fc “[…]” designations), were captured onto an anti-human Fc sensor surface (mAb-capture format), and soluble monomeric (hPRLR.mmh; SEQ ID NO:401, or macaca fascicularis (mf) PRLR.mmh; SEQ ID NO:403) or dimeric (hPRLR.mFc; SEQ ID NO:402) PRLR protein was injected over the sensor surface. Measurements were conducted on a T200 Biacore instrument. Kinetic association (ka) and dissociation (kd) rate constants were determined by processing and fitting the data to a 1:1 binding model using Scrubber 2.0 curve fitting software.

[2] = target: T1, hPRLR.mFc (soluble dimeric human PRLR) (Homo sapiens, UniProt P16471); experiment: as above; format: binding; settings: antibody-capture format, analyte hPRLR.mFc
T1 construct: dimeric (hPRLR.mFc)
T1 sequence (P16471 with tags, fused parts or gaps): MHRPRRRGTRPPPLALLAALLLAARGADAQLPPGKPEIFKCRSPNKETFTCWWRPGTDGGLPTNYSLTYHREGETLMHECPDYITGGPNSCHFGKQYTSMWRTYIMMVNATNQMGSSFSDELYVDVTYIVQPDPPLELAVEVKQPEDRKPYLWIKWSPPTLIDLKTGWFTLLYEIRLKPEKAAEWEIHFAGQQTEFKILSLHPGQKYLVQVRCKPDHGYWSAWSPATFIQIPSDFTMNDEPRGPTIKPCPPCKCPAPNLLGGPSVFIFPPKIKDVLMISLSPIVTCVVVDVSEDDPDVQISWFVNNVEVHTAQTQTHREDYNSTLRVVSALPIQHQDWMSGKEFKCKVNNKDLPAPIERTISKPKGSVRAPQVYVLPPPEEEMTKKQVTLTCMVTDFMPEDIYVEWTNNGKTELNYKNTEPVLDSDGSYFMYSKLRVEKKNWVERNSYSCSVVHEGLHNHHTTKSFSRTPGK
Experimental: as §1

[3] = target: T2, hPRLR.mmh (soluble monomeric human PRLR) (Homo sapiens, UniProt P16471); experiment: as above; format: binding; settings: antibody-capture format, analyte hPRLR.mmh
T2 construct: soluble monomeric (hPRLR.mmh); mmh (myc-myc-hexahistidine)
T2 sequence (P16471 with tags, fused parts or gaps): as the sequence (as listed by the source) above, with V105I, T139A, M154I, T187I, I236T counted along it
Experimental: as §1

[4] = test system: HEK293/hPRLR/STAT5-Luc cells (human PRLR); experiment: STAT5-Luc luciferase reporter assay, blocking of PRL-mediated receptor activation; format: cell-based; settings: for Percent Blocking at 100 nM Antibody: 5 nM PRL; for IC50: 5 nM constant PRL, 6 hr at 37° C.
Source text: The ability of anti-PRLR antibodies to block prolactin (PRL)-mediated receptor activation was examined in a luciferase-based reporter assay. The endocrine hormone PRL binds to the extracellular domain of its cognate receptor PRLR, triggering rapid homodimerization and activating several downstream signaling cascades.
In this example, an engineered cell line was used to determine the ability of anti-PRLR antibodies to block ligand activation of the PRLR receptor. Briefly, HEK293/hPRLR/STAT5-Luc cell lines with stable incorporation of a human PRLR expression cassette and the STAT5-dependent luciferase reporter were generated via sequential rounds of Lipofectamine® 2000-mediated transfection (LifeTechnologies, Carlsbad, Calif.). Cells were selected for at least two weeks in the presence of 500 μg/mL G418 (hPRLR) and 100 μg/mL hygromycin B (STAT5-Luc). The STAT5-Luc assay utilized 2×10^5 HEK293/hPRLR/STAT5-Luc cells seeded in complete growth medium on PDL-coated 96 well plates grown overnight at 37° C., 5% CO2. To generate antibody inhibition curves, cells were incubated (6 hr at 37° C.) with serially diluted anti-human PRLR antibodies (100 nM to 24 pM) in the presence of 5 nM constant PRL before recording signal. PRL dose response curves were generated by the addition of serially diluted PRL (100 nM to 24 pM) to cells and recording signal after a 6 hr (37° C.) incubation in the absence of antibodies. The ability of the antibodies to activate PRLR in the absence of ligand was also assessed.
Luciferase activity was measured with ONE-GLO™ reagent (Promega, Madison, Wis.). Relative light units (RLUs) were measured on a Victor luminometer (Perkin Elmer, Shelton, Conn.). EC50/IC50 values were determined from a four-parameter logistic equation over an 8-point response curve using GraphPad Prism. Percent blocking and percent activation are reported for the highest antibody dose.

Molecule | Kd ([1]; 25° C.) [nM] | T½ ([1]; 25° C.) [min] | Kd ([1]; 37° C.) [nM] | T½ ([1]; 37° C.) [min] | Kd ([2]; 25° C.) [nM] | T½ ([2]; 25° C.) [min] | Kd ([2]; 37° C.) [nM] | T½ ([2]; 37° C.) [min] | Kd ([3]; 25° C.) [nM] | T½ ([3]; 25° C.) [min] | Kd ([3]; 37° C.) [nM] | T½ ([3]; 37° C.) [min] | Percent Blocking at 100 nM Antibody [4] [%] | IC50 [4] [nM]
B1 | 1.77 | 13 | 5 | 3 | 0.112 | 129 | 0.138 | 60 | 1.14 | 14 | 2.95 | 4 | 0 | 
B2 | 0.986 | 82 | 1.08 | 43 | 0.236 | 191 | 0.226 | 117 | 0.61 | 91 | 0.91 | 37 | 100 | 0.027
B3 | 1.05 | 41 | 1.99 | 15 | 0.225 | 162 | 0.217 | 89 | 0.685 | 47 | 1.28 | 16 | 0 | > 100
B4 | 0.738 | 69 | 1.52 | 26 | 0.231 | 190 | 0.256 | 99 | 0.567 | 68 | 1.14 | 24 | 100 | 0.345
B5 | 2.04 | 15 | 5.22 | 4 | 0.192 | 111 | 0.306 | 58 | 1.41 | 14 | 3.5 | 4 | 100 | 0.206
B6 | 4.17 | 12 | 9.37 | 4 | 0.313 | 122 | 0.352 | 66 | 2.45 | 15 | 5.27 | 5 | 100 | 0.57
B7 | 2.22 | 29 | 4.59 | 11 | 0.331 | 153 | 0.347 | 81 | 1.41 | 35 | 3.02 | 11 | 65 | 
B8 | 2.33 | 6 | 6.16 | 2 | 0.0545 | 137 | 0.0402 | 149 | 1.52 | 7 | 3.81 | 2 | 0 | 
